The values that follow come from paper PMC2994917 (The Journal of neuroscience : the official journal of the …, 2010).

For one assay, the target named is NSF S460E mutant (Chinese hamster, UniProt P18708 1-744, S460E). In words: far-Western, overlay or dot blot.
The target of the next assay is NSF T461E mutant (Chinese hamster, UniProt P18708 1-744, T461E). Description: far-Western, overlay or dot blot.
Chain of NSF T461E mutant (P18708 whole entry T461E): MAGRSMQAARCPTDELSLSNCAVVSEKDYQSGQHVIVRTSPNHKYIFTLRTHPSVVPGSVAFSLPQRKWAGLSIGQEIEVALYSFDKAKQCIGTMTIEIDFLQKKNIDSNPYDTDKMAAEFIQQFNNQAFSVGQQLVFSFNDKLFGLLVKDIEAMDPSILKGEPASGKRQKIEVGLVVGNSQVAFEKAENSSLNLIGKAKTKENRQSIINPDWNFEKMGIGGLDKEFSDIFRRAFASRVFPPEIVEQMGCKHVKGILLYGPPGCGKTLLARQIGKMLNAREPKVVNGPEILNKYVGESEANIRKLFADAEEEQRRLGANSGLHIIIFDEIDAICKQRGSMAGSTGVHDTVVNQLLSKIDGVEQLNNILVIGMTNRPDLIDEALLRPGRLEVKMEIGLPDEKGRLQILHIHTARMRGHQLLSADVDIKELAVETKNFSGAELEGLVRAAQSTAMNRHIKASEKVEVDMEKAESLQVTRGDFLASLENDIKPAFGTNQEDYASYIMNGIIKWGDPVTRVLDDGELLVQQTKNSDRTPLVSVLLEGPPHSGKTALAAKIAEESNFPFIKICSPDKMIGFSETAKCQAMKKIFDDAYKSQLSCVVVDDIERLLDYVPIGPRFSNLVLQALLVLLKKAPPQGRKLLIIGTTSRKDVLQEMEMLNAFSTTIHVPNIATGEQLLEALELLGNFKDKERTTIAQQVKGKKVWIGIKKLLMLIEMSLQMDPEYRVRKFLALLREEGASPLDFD

Chain of NSF S460E mutant (P18708 whole entry S460E): as the sequence (P18708 whole entry T461E) above, with S460E, E461T counted along it

B1: human recombinant PKCε (Invitrogen) (enzyme, UniProt Q02156 1-737, looked up)
chain: MVVFNGLLKIKICEAVSLKPTAWSLRHAVGPRPQTFLLDPYIALNVDDSRIGQTATKQKTNSPAWHDEFVTDVCNGRKIELAVFHDAPIGYDDFVANCTIQFEELLQNGSRHFEDWIDLEPEGRVYVIIDLSGSSGEAPKDNEERVFRERMRPRKRQGAVRRRVHQVNGHKFMATYLRQPTYCSHCRDFIWGVIGKQGYQCQVCTCVVHKRCHELIITKCAGLKKQETPDQVGSQRFSVNMPHKFGIHNYKVPTFCDHCGSLLWGLLRQGLQCKVCKMNVHRRCETNVAPNCGVDARGIAKVLADLGVTPDKITNSGQRRKKLIAGAESPQPASGSSPSEEDRSKSAPTSPCDQEIKELENNIRKALSFDNRGEEHRAASSPDGQLMSPGENGEVRQGQAKRLGLDEFNFIKVLGKGSFGKVMLAELKGKDEVYAVKVLKKDVILQDDDVDCTMTEKRILALARKHPYLTQLYCCFQTKDRLFFVMEYVNGGDLMFQIQRSRKFDEPRSRFYAAEVTSALMFLHQHGVIYRDLKLDNILLDAEGHCKLADFGMCKEGILNGVTTTTFCGTPDYIAPEILQELEYGPSVDWWALGVLMYEMMAGQPPFEADNEDDLFESILHDDVLYPVWLSKEAVSILKAFMTKNPHKRLGCVASQNGEDAIKQHPFFKEIDWVLLEQKKIKPPFKPRIKTKRDVNNFDQDFTREEPVLTLVDEAIVKQINQEEFKGFSYFGEDLMP
On to B1, for which the binding result in the assay with NSF S460E mutant and in the assay with NSF T461E mutant was “binds” throughout.
